Data: patent publication US20170355766A1 (Xencor, published 2017)
Substitutions are numbered along the chain they refer to. Names may count otherwise.

What was measured:
FcγRIIaR = target: T1, FcγRIIaR (human, UniProt P12318); test: SPR (Biacore)
T1 construct: recombinant receptor protein with 6xHis and GST tags; also called R131 FcγRIIa
T1 sequence (receptor, looked up): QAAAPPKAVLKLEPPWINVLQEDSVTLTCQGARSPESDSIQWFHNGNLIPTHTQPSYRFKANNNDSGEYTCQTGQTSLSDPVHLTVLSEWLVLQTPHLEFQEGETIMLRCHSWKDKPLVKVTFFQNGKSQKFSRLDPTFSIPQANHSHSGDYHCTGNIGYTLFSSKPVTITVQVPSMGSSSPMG

[1] = target: T2, human FcγRIIb receptor protein (R&D Systems) (human, UniProt P31994 46-217); test: SPR (Biacore)
T2 construct: Analyte injected over antibodies captured on a protein A/G chip (Biacore); also called CD32b
T2 sequence (looked up): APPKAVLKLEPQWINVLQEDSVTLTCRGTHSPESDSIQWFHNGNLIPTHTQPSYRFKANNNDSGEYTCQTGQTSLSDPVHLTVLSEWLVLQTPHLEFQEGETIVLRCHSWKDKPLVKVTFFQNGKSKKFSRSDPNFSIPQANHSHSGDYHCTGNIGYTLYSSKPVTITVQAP

B1: A327G (antibody, human IgG1, kappa)
heavy: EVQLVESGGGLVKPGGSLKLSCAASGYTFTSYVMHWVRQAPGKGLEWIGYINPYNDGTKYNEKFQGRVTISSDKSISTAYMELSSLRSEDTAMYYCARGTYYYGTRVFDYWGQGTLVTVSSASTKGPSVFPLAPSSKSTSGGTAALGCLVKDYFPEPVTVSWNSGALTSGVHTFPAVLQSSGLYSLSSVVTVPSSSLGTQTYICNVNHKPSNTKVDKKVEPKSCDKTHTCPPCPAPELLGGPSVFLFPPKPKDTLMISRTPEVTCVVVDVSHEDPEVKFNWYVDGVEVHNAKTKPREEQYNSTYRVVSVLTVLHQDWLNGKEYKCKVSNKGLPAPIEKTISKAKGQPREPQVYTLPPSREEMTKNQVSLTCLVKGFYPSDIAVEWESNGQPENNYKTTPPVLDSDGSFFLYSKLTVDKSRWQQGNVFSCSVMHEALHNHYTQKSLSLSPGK
light: DIVMTQSPATLSLSPGERATLSCRSSKSLQNVNGNTYLYWFQQKPGQSPQLLIYRMSNLNSGVPDRFSGSGSGTEFTLTISSLEPEDFAVYYCMQHLEYPITFGAGTKLEIKRTVAAPSVFIFPPSDEQLKSGTASVVCLLNNFYPREAKVQWKVDNALQSGNSQESVTEQDSKDSTYSLSSTLTLSKADYEKHKVYACEVTHQGLSSPVTKSFNRGEC
notes: HuAM4G7 IgG1 Fc variant
- Fold FcγRIIaR (FcγRIIaR): 0.319 fold
- Fold FcγRIIb [1]: 0.353 fold

B2: S267D/H268E (antibody, human IgG1, kappa)
heavy: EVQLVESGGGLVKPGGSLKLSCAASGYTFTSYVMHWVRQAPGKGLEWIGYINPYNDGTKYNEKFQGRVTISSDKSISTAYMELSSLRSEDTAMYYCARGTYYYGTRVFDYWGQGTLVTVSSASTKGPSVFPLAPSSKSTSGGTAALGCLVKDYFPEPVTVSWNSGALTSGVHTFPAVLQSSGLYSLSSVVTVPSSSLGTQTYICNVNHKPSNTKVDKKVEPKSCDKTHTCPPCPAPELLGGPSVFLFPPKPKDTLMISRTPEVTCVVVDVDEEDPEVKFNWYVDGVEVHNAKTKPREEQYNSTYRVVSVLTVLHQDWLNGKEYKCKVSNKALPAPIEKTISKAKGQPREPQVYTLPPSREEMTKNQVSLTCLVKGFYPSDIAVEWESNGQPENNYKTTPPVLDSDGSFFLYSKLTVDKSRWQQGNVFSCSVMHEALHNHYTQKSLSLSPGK
light: B1 light
notes: HuAM4G7 IgG1 Fc variant
- Fold FcγRIIb [1]: 17.8 fold

B3: S267D/A327D (antibody, human IgG1, kappa)
heavy: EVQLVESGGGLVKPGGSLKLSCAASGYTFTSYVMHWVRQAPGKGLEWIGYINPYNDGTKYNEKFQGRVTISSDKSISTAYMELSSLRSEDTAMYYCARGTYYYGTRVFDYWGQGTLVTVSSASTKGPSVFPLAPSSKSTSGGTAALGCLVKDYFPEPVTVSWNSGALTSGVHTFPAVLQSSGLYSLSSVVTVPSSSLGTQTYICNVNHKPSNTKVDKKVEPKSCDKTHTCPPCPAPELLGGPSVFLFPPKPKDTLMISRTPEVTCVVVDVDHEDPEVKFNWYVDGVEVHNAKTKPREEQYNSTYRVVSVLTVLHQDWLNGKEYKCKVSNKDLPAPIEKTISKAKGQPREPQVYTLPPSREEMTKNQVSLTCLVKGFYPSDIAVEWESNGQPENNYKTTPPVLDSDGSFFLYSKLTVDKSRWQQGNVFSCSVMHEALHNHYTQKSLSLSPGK
light: B1 light
notes: HuAM4G7 IgG1 Fc variant
- Fold FcγRIIb [1]: 6.89 fold

B4: S239D/L328Y/I332E (antibody, human IgG1, kappa)
heavy: EVQLVESGGGLVKPGGSLKLSCAASGYTFTSYVMHWVRQAPGKGLEWIGYINPYNDGTKYNEKFQGRVTISSDKSISTAYMELSSLRSEDTAMYYCARGTYYYGTRVFDYWGQGTLVTVSSASTKGPSVFPLAPSSKSTSGGTAALGCLVKDYFPEPVTVSWNSGALTSGVHTFPAVLQSSGLYSLSSVVTVPSSSLGTQTYICNVNHKPSNTKVDKKVEPKSCDKTHTCPPCPAPELLGGPDVFLFPPKPKDTLMISRTPEVTCVVVDVSHEDPEVKFNWYVDGVEVHNAKTKPREEQYNSTYRVVSVLTVLHQDWLNGKEYKCKVSNKAYPAPEEKTISKAKGQPREPQVYTLPPSREEMTKNQVSLTCLVKGFYPSDIAVEWESNGQPENNYKTTPPVLDSDGSFFLYSKLTVDKSRWQQGNVFSCSVMHEALHNHYTQKSLSLSPGK
light: B1 light
notes: HuAM4G7 IgG1 Fc variant
- Fold FcγRIIb [1]: 7.41 fold

B5: S267D/H268D (antibody, human IgG1, kappa)
heavy: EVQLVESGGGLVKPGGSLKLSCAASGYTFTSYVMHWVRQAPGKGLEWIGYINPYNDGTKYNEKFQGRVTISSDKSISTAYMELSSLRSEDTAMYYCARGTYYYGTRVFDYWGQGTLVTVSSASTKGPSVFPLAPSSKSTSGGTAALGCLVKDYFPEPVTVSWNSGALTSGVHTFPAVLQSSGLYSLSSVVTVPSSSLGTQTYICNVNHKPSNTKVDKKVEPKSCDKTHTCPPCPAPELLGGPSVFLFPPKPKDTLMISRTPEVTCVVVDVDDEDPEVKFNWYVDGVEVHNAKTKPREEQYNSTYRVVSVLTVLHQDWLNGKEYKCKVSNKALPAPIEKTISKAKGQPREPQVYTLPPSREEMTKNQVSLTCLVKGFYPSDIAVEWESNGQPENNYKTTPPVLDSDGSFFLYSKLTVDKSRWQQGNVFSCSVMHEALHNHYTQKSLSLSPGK
light: B1 light
notes: HuAM4G7 IgG1 Fc variant
- Fold FcγRIIb [1]: 14.2 fold

B6: S239D/H268D/L328Y/I332E (antibody, human IgG1, kappa)
heavy: B4 heavy with H272D
light: B1 light
notes: HuAM4G7 IgG1 Fc variant
- Fold FcγRIIb [1]: 54.1 fold

B7: L235Q (antibody, human IgG1, kappa)
heavy: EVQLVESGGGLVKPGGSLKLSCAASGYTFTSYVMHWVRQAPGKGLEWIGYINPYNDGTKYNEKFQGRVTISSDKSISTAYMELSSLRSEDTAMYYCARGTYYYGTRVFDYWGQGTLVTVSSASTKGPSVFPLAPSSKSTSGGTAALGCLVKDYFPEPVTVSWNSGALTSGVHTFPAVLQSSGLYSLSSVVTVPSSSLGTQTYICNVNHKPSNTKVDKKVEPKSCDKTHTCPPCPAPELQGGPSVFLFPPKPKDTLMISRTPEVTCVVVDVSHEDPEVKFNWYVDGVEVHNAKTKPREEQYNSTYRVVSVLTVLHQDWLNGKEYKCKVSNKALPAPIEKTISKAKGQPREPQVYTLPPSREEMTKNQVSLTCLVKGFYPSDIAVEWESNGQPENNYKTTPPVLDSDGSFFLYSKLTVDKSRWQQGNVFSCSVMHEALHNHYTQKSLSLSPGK
light: B1 light
notes: HuAM4G7 IgG1 Fc variant
- Fold FcγRIIaR (FcγRIIaR): 2.04 fold

B8: S239D/L328F/I332E (antibody, human IgG1, kappa)
heavy: B4 heavy with Y332F
light: B1 light
notes: HuAM4G7 IgG1 Fc variant
- Fold FcγRIIb [1]: 8.34 fold

B9: S239D/H268D/L328Y (antibody, human IgG1, kappa)
heavy: B4 heavy with H272D, E336I
light: B1 light
notes: HuAM4G7 IgG1 Fc variant
- Fold FcγRIIb [1]: 24.4 fold

B10: S267D/A327E (antibody, human IgG1, kappa)
heavy: not shown
light: B1 light
notes: HuAM4G7 IgG1 Fc variant
- Fold FcγRIIb [1]: 12.1 fold

B11: S239D/H268D/L328W/I332E (antibody, human IgG1, kappa)
heavy: B4 heavy with H272D, Y332W
light: B1 light
notes: HuAM4G7 IgG1 Fc variant
- Fold FcγRIIb [1]: 27.8 fold

B12: H268Q (antibody, human IgG1, kappa)
heavy: not shown
light: B1 light
notes: HuAM4G7 IgG1 Fc variant
- Fold FcγRIIaR (FcγRIIaR): 1.58 fold

B13: S267A/H268D/L328Y (antibody, human IgG1, kappa)
heavy: B4 heavy with D243S, S271A, H272D, E336I
light: B1 light
notes: HuAM4G7 IgG1 Fc variant
- Fold FcγRIIb [1]: 10.7 fold

B14: L235P (antibody, human IgG1, kappa)
heavy: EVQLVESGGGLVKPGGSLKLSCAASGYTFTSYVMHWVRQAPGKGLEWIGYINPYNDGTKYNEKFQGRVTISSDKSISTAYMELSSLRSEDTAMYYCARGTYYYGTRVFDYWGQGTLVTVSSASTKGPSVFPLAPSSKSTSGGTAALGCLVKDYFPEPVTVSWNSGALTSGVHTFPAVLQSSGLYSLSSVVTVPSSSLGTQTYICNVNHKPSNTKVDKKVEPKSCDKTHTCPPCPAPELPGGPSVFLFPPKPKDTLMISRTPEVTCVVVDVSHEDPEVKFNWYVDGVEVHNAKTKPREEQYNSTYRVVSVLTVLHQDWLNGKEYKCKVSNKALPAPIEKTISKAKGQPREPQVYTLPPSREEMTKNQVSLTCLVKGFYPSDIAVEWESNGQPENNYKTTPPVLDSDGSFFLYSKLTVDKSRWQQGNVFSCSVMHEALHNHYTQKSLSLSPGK
light: B1 light
notes: HuAM4G7 IgG1 Fc variant
- Fold FcγRIIaR (FcγRIIaR): 0.122 fold

B15: S239D/K326D/L328Y (antibody, human IgG1, kappa)
heavy: B4 heavy with K330D, E336I
light: B1 light
notes: HuAM4G7 IgG1 Fc variant
- Fold FcγRIIb [1]: 13 fold

B16: G236V (antibody, human IgG1, kappa)
heavy: not shown
light: B1 light
notes: HuAM4G7 IgG1 Fc variant
- Fold FcγRIIaR (FcγRIIaR): 0.106 fold

B17: P331S (antibody, human IgG1, kappa)
heavy: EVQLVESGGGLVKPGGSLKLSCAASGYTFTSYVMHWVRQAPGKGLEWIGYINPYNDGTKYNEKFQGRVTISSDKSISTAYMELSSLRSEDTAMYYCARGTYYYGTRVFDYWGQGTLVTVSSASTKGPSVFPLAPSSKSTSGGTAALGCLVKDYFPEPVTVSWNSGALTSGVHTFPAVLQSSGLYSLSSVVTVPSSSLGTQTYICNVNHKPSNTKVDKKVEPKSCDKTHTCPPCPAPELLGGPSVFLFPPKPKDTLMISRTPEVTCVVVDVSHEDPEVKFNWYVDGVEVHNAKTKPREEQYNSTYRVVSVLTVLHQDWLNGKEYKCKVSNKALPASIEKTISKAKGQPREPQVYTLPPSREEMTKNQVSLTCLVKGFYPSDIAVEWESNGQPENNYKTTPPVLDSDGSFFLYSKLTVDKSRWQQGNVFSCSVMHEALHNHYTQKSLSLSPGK
light: B1 light
notes: HuAM4G7 IgG1 Fc variant
- Fold FcγRIIb [1]: 0.0372 fold

B18: S239D/H268E/L328Y (antibody, human IgG1, kappa)
heavy: B4 heavy with H272E, E336I
light: B1 light
notes: HuAM4G7 IgG1 Fc variant
- Fold FcγRIIb [1]: 21.7 fold

B19: S239D/H268D/L328W (antibody, human IgG1, kappa)
heavy: B4 heavy with H272D, Y332W, E336I
light: B1 light
notes: HuAM4G7 IgG1 Fc variant
- Fold FcγRIIb [1]: 51.1 fold

B20: S239D/L328Y (antibody, human IgG1, kappa)
heavy: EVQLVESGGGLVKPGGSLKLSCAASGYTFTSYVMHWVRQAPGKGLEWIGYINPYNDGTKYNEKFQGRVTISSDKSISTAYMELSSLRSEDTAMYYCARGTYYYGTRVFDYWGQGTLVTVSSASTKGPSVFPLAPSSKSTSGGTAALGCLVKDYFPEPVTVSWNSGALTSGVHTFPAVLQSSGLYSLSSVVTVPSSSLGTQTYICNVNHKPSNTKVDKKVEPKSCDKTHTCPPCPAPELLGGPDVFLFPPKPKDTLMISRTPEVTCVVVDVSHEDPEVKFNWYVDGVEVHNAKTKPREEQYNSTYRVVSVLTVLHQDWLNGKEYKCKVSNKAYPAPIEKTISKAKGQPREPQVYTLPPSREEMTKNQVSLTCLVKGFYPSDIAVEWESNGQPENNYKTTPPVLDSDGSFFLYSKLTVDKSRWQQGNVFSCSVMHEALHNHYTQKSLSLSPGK
light: B1 light
notes: HuAM4G7 IgG1 Fc variant
- Fold FcγRIIb [1]: 5.56 fold

B21: S267E/H268D (antibody, human IgG1, kappa)
heavy: not shown
light: B1 light
notes: HuAM4G7 IgG1 Fc variant
- Fold FcγRIIb [1]: 33.3 fold

B22: S239D/S267D (antibody, human IgG1, kappa)
heavy: not shown
light: B1 light
notes: HuAM4G7 IgG1 Fc variant
- Fold FcγRIIb [1]: 22.3 fold

B23: S267A/L328Y/I332E (antibody, human IgG1, kappa)
heavy: B4 heavy with D243S, S271A
light: B1 light
notes: HuAM4G7 IgG1 Fc variant
- Fold FcγRIIb [1]: 13.5 fold

B24: A327Q (antibody, human IgG1, kappa)
heavy: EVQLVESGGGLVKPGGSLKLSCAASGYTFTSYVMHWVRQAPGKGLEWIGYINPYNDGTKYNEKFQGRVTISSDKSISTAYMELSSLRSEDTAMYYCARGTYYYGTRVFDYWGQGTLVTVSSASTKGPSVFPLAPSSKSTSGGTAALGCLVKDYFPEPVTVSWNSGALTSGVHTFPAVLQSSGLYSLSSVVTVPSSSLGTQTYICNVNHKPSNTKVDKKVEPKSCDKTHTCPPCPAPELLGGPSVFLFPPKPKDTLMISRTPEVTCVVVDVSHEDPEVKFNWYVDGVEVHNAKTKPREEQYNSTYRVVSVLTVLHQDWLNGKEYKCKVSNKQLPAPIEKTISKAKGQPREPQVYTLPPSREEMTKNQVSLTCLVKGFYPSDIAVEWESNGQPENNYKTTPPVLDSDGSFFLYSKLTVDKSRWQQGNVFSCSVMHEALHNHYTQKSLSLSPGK
light: B1 light
notes: HuAM4G7 IgG1 Fc variant
- Fold FcγRIIaR (FcγRIIaR): 0.634 fold
- Fold FcγRIIb [1]: 0.011 fold

B25: S239D/A327D/L328Y (antibody, human IgG1, kappa)
heavy: B4 heavy with A331D, E336I
light: B1 light
notes: HuAM4G7 IgG1 Fc variant
- Fold FcγRIIb [1]: 11.9 fold

B26: S239D/S267A/L328Y (antibody, human IgG1, kappa)
heavy: B4 heavy with S271A, E336I
light: B1 light
notes: HuAM4G7 IgG1 Fc variant
- Fold FcγRIIb [1]: 19.8 fold

B27: L328Y/I332E (antibody, human IgG1, kappa)
heavy: not shown
light: B1 light
notes: HuAM4G7 IgG1 Fc variant
- Fold FcγRIIb [1]: 2.08 fold

B28: L235N (antibody, human IgG1, kappa)
heavy: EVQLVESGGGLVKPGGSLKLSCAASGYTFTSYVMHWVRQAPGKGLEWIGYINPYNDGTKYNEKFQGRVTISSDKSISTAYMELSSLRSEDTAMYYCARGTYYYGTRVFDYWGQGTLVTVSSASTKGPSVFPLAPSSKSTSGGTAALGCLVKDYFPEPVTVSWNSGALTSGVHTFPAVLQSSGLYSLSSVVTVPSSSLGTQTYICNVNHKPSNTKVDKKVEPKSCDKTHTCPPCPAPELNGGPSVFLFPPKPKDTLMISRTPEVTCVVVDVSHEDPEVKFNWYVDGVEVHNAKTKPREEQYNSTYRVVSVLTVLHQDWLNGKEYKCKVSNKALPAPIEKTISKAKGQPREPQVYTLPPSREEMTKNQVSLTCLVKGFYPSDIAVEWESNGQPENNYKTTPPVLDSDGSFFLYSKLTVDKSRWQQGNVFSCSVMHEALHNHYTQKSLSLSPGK
light: B1 light
notes: HuAM4G7 IgG1 Fc variant
- Fold FcγRIIaR (FcγRIIaR): 0.0356 fold

B29: S239D/H268D/L328F (antibody, human IgG1, kappa)
heavy: B4 heavy with H272D, Y332F, E336I
light: B1 light
notes: HuAM4G7 IgG1 Fc variant
- Fold FcγRIIb [1]: 8.79 fold

B30: S267E/L328Q (antibody, human IgG1, kappa)
heavy: not shown
light: B1 light
notes: HuAM4G7 IgG1 Fc variant
- Fold FcγRIIb [1]: 12.1 fold

B31: S239D/H268D/L328F/I332E (antibody, human IgG1, kappa)
heavy: B4 heavy with H272D, Y332F
light: B1 light
notes: HuAM4G7 IgG1 Fc variant
- Fold FcγRIIb [1]: 53.2 fold

B32: S239D/H268D (antibody, human IgG1, kappa)
heavy: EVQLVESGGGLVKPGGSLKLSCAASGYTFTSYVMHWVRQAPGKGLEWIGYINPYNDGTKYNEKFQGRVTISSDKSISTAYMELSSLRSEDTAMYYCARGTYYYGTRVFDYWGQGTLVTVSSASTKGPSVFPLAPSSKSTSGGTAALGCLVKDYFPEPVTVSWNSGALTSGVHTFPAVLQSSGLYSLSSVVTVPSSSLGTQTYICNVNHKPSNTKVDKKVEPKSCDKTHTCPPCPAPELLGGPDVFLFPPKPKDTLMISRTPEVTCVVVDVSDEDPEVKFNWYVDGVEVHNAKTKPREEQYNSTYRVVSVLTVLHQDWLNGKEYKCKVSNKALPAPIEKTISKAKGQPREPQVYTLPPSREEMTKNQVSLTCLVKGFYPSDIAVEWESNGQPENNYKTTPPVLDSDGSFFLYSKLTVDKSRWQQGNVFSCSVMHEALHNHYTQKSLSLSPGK
light: B1 light
notes: HuAM4G7 IgG1 Fc variant
- Fold FcγRIIb [1]: 14.4 fold

B33: S239D/S267E/I332E (antibody, human IgG1, kappa)
heavy: B4 heavy with S271E, Y332L
light: B1 light
notes: HuAM4G7 IgG1 Fc variant
- Fold FcγRIIb [1]: 124 fold
